Test results: the supplement of paper PMC9112550, “Optimization of the antimicrobial peptide Bac7 by deep mutational scanning” (BMC Biology, 2022)

Tested on: Escherichia coli TOP10
Assay: shrunken log2 fold change of peptide-encoding DNA abundance (4.5 h post-induction vs induction); higher = less antimicrobial activity (less host growth inhibition)
Details: time post-induction: 4.5 h; library: site-saturation at positions 5, 18, 19, 20
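Further: peptides expressed intracellularly from a pBAD plasmid library in pooled LB shake-flask culture, induced with 0.3% L-arabinose, DNA abundance read by NGS, three biological replicates, DESeq2 with apeglm shrinkage.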

Sequence | shrunken log2 fold change
RRIRKRPPRLPRPRPRPYWRPRP | -0.426
RRIRKRPPRLPRPRPRPYYLPRP | -0.278
RRIRLRPPRLPRPRPRPAAFPRP | 0.184
RRIRLRPPRLPRPRPRPAANPRP | 0.273
RRIRLRPPRLPRPRPRPAASPRP | 0.0421
RRIRLRPPRLPRPRPRPAFAPRP | 0.368
RRIRLRPPRLPRPRPRPAHGPRP | -0.0453
RRIRLRPPRLPRPRPRPAHVPRP | 0.241
RRIRLRPPRLPRPRPRPAHWPRP | 0.608
RRIRLRPPRLPRPRPRPAIVPRP | 0.0701
RRIRLRPPRLPRPRPRPAKGPRP | -0.00764
RRIRLRPPRLPRPRPRPAKHPRP | -0.221
RRIRLRPPRLPRPRPRPALCPRP | 0.00966
RRIRLRPPRLPRPRPRPAMWPRP | 0.373
RRIRLRPPRLPRPRPRPANAPRP | 0.0811
RRIRLRPPRLPRPRPRPAPNPRP | 0.555
RRIRLRPPRLPRPRPRPAQMPRP | 0.122
RRIRLRPPRLPRPRPRPAQSPRP | 0.485
RRIRLRPPRLPRPRPRPASSPRP | -0.0827
RRIRLRPPRLPRPRPRPASYPRP | -0.308
RRIRLRPPRLPRPRPRPATNPRP | -0.253
RRIRLRPPRLPRPRPRPAVRPRP | 0.0913
RRIRLRPPRLPRPRPRPAVYPRP | 0.00171
RRIRLRPPRLPRPRPRPAYAPRP | -0.0747
RRIRLRPPRLPRPRPRPAYVPRP | -0.177

Sequence | shrunken log2 fold change
RRIRLRPPRLPRPRPRPCAMPRP | 0.00887
RRIRLRPPRLPRPRPRPCAYPRP | -0.189
RRIRLRPPRLPRPRPRPCDMPRP | -0.0352
RRIRLRPPRLPRPRPRPCECPRP | 0.202
RRIRLRPPRLPRPRPRPCEIPRP | 0.0237
RRIRLRPPRLPRPRPRPCEMPRP | -0.0934
RRIRLRPPRLPRPRPRPCFPPRP | -0.206
RRIRLRPPRLPRPRPRPCGLPRP | 0.142
RRIRLRPPRLPRPRPRPCKHPRP | -0.0106
RRIRLRPPRLPRPRPRPCMEPRP | 0.115
RRIRLRPPRLPRPRPRPCMNPRP | -0.07
RRIRLRPPRLPRPRPRPCNEPRP | -0.0438
RRIRLRPPRLPRPRPRPCPEPRP | -0.0401
RRIRLRPPRLPRPRPRPCPKPRP | 0.136
RRIRLRPPRLPRPRPRPCTHPRP | -0.0381
RRIRLRPPRLPRPRPRPCTNPRP | -0.094
RRIRLRPPRLPRPRPRPCWSPRP | -0.172
RRIRLRPPRLPRPRPRPCYNPRP | -0.206
RRIRLRPPRLPRPRPRPDCNPRP | 0.0608
RRIRLRPPRLPRPRPRPDCSPRP | 0.0574
RRIRLRPPRLPRPRPRPDEMPRP | 0.123
RRIRLRPPRLPRPRPRPDFKPRP | -0.06
RRIRLRPPRLPRPRPRPDFQPRP | 0.157
RRIRLRPPRLPRPRPRPDFVPRP | -0.108
RRIRLRPPRLPRPRPRPDGMPRP | -0.153

Sequence | shrunken log2 fold change
RRIRLRPPRLPRPRPRPDHCPRP | -0.0562
RRIRLRPPRLPRPRPRPDIAPRP | 0.024
RRIRLRPPRLPRPRPRPDKIPRP | -0.494
RRIRLRPPRLPRPRPRPDKSPRP | -0.118
RRIRLRPPRLPRPRPRPDMKPRP | -0.286
RRIRLRPPRLPRPRPRPDPTPRP | 0.0311
RRIRLRPPRLPRPRPRPDQAPRP | -0.00133
RRIRLRPPRLPRPRPRPDRDPRP | -0.154
RRIRLRPPRLPRPRPRPDRVPRP | -0.0538
RRIRLRPPRLPRPRPRPDSRPRP | 0.0292
RRIRLRPPRLPRPRPRPDSSPRP | 0.00161
RRIRLRPPRLPRPRPRPDTIPRP | -0.21
RRIRLRPPRLPRPRPRPDTNPRP | -0.103
RRIRLRPPRLPRPRPRPDVRPRP | 0.0235
RRIRLRPPRLPRPRPRPDWDPRP | -0.183
RRIRLRPPRLPRPRPRPDYNPRP | -0.657
RRIRLRPPRLPRPRPRPEAGPRP | 0.375
RRIRLRPPRLPRPRPRPECAPRP | 0.65
RRIRLRPPRLPRPRPRPECFPRP | 0.226
RRIRLRPPRLPRPRPRPECIPRP | -0.0423
RRIRLRPPRLPRPRPRPEDFPRP | 0.0854
RRIRLRPPRLPRPRPRPEDMPRP | 0.0524
RRIRLRPPRLPRPRPRPEECPRP | 0.00698
RRIRLRPPRLPRPRPRPEEDPRP | -0.00133
RRIRLRPPRLPRPRPRPEEVPRP | -0.00242
